According to PMC7335806, “Molecular mechanisms that regulate export of the planar cell-polarity protein Frizzled-6 out of the endoplasmic reticulum” (The Journal of Biological Chemistry, 2020):

What was measured:
Test in all cases: pull-down; peptides (5 nmol) covalently coupled to thiopyridone-Sepharose 6B beads via the C-terminal cysteine; 2 μg purified His-tagged Sar1A preincubated with 500 μM GTPγS in HK buffer (100 mM KCl, 20 mM Hepes pH 7.2); 1 h at 4 °C; immunoblotting
Conditions in all cases: both partners purified
[1] = target: T1, Sar1A (Δ2-17, E62A, E63A, H79G) (human, UniProt Q9NR31 10-198, Δ2-17 | E62A | E63A | H79G)
T1 construct: Sar1A, human, Δ2-17, H79G with E62A and E63A; preincubated with GTPγS; also called Sar1A (Δ2-17, H79G, E62A, E63A)-His; source: recombinant, purified; not shown: His, C-terminal, kept

[2] = target: T2, Sar1A (Δ2-17, H79G, D198A) (human, UniProt Q9NR31 10-198, Δ2-17 | H79G | D198A)
T2 construct: Sar1A, human, Δ2-17, H79G with D198A; preincubated with GTPγS; also called Sar1A bearing the D198A mutation; source: recombinant, purified

[3] = target: T3, His-tagged human Sar1A^(Δ2-17, H79G) (human, UniProt Q9NR31 10-198, Δ2-17 | H79G)
T3 construct: Sar1A, human, H79G, depleted of its N-terminal amphipathic helix (Δ2-17); preincubated with GTPγS; also called Sar1A^(Δ2-17, H79G)-His; Sar1A (Δ2-17, H79G)-His; source: recombinant (cloned into pET-28a), purified; not shown: His, C-terminal, kept

Measured: binding result

T3 sequence (Q9NR31 18-198 H79G): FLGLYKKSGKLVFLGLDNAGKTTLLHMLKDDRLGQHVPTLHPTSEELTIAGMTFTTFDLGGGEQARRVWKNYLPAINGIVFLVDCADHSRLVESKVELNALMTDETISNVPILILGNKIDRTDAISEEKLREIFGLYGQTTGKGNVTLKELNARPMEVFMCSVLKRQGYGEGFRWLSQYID
T2 sequence (Q9NR31 18-198 H79G/D198A): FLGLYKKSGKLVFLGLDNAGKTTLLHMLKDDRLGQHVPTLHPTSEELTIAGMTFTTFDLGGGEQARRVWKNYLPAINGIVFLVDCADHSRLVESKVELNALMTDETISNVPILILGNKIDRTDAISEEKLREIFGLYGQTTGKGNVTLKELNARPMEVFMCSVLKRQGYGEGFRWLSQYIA
T1 sequence (Q9NR31 18-198 E62A/E63A/H79G): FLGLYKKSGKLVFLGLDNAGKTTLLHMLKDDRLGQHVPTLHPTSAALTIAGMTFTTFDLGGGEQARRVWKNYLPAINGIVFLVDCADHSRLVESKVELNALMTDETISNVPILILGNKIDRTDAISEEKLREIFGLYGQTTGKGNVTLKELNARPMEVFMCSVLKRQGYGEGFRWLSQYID

B1: RRFR peptides (first intracellular loop of Fzd6) (peptide)
peptide: VRRFRYPERPC
notes: first intracellular loop of Fzd6 with the polybasic motif RRFR; added C-terminal cysteine residue, used to couple the peptide to thiopyridone-Sepharose 6B beads; Covalently linked to thiopyridone-Sepharose 6B through the added C-terminal cysteine; source: synthetic peptide, bought: GenScript
binds: all assays above
